{"source": "patent US20040058416A1", "about": "(published 2004)", "binders": {"B1": {"name": "neurotrophin-3 (NT-3) (ligand, UniProt P20783 139-257, looked up)", "chain": "YAEHKSHRGEYSVCDSESLWVTDKSSAIDIRGHQVTVLGEIKTGNSPVKQYFYETRCKEARPVKNGCRGIDDKHWNSQCKTSQTYVRALTSENNKLVGWRWIRIDTSCVCALSRKIGRT", "modifications": "radiolabelled (iodinated) where used as tracer", "notes": "also called labelled NT3; cold NT3"}, "B2": {"name": "trkC variant s5A immunoadhesin (trkC Val297 to Thr420 replaced with trkA Ser277 to Val402) (Fc fusion, not shown: a dimerising Fc or GST)", "chain": "CPANCVCSKTEINCRRPDDGNLFPLLEGQDSGNSNGNANINITDISRNITSIHIENWRSLHTLNAVDMELYTGLQKLTIKNSGLRSIQPRAFAKNPHLRYINLSSNRLTTLSWQLFQTLSLRELQLEQNFFNCSCDIRWMQLWQEQGEAKLNSQNLYCINADGSQLPLFRMNISQCDLPEISVSHVNLTVREGDNAVITCNGSGSPLPDVDWIVTGLQSINTHQTNLNWTNVHAINLTLVNVTSEDNGFTLTCIAENVVGMSNASSVQVNVSFPASVQLHTAVEMHHWCIPFSVDGQPAPSLRWLFNGSVLNETSFIFTEFLEPAANETVRHGCLRLNQPTHVNNGNYTLLAANPFGQASASIMAAFMDNPFEFNPEDPIPDTNSTSGDPV", "notes": "also called s5A chimera"}, "B3": {"name": "brain-derived neurotrophic factor (BDNF) (ligand, UniProt P23560 129-247, looked up)", "chain": "HSDPARRGELSVCDSISEWVTAADKKTAVDMSGGTVTVLEKVPVSKGQLKQYFYETKCNPMGYTKEGCRGIDKRHWNSQCRTTQSYVRALTMDSKKRIGWRFIRIDTSCVCTLTIKRGR", "modifications": "radiolabelled (iodinated) where used as tracer", "notes": "also called NT-2; labelled BDNF"}, "B4": {"name": "trkA variant ?4A immunoadhesin (deletion of Val193 to Val282 of trkA) (Fc fusion, not shown: a dimerising Fc or GST)", "chain": "AAPCPDACCPHGSSGLRCTRDGALDSLHHLPGAENLTELYIENQQHLQHLELRDLRGLGELRNLTIVKSGLRFVAPDAFHFTPRLSRLNLSFNALESLSWKTVQGLSLQELVLSGNPLHCSCALRWLQRWEEEGLGGVPEQKLQCHGQGPLAHMPNASCGSFPASVQLHTAVEMHHWCIPFSVDGQPAPSLRWLFNGSVLNETSFIFTEFLEPAANETVRHGCLRLNQPTHVNNGNYTLLAANPFGQASASIMAAFMDNPFEFNPEDPIPDTNSTSGDPV", "notes": "'Mature' variant"}}, "key": {"[1]": {"molecular_target": "T1, trkA-IgG immunoadhesin (human trkA extracellular domain fused to human IgG-1 Fc) (human, UniProt P04629 33-408)", "T1 construct": "also called native trkA; chimeras containing trkA extracellular domain; not shown: human IgG-1 hinge-CH2-CH3 (aspartic acid 216 to residue 441)", "test": "competitive displacement of iodinated NGF from trkA-IgG by unlabelled NT3"}, "[2]": {"molecular_target": "T2, trkB-IgG immunoadhesin (human trkB extracellular domain fused to human IgG-1 Fc) (human)", "T2 construct": "also called chimeras containing trkB", "T2 sequence (Q16620 32-423)": "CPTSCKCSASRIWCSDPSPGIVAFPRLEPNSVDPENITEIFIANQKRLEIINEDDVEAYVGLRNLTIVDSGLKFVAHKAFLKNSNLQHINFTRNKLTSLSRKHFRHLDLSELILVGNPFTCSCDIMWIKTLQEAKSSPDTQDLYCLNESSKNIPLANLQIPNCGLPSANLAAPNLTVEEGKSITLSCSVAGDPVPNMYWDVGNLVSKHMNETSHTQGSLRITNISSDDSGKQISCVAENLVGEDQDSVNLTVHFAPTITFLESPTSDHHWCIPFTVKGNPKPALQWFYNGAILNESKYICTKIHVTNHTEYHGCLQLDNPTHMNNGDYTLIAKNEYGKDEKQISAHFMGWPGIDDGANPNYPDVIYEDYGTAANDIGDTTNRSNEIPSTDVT", "test": "competitive displacement of iodinated BDNF from trkB-IgG by unlabelled NT3"}, "[3]": {"molecular_target": "T3, nerve growth factor (NGF) (UniProt P01138 122-241, limits assumed, iodinated (125I) where used as tracer)", "T3 construct": "also called 125I-NGF; labelled NGF", "test": "saturation binding with 125I-NGF, immunoadhesin"}, "[4]": {"molecular_target": "T2, trkB-IgG immunoadhesin (human trkB …)", "test": "competitive displacement of iodinated BDNF from trkB-IgG by unlabelled BDNF"}, "[5]": {"molecular_target": "T3, nerve growth factor (NGF)", "test": "NGF binding to immunoadhesin (competitive displacement, as in Example 4)"}}, "data": [{"binder": "B1", "values": [{"measurement": "IC50", "setting": "[1]", "result": 20, "unit": "nM"}, {"measurement": "IC50", "setting": "[2]", "result": 18, "unit": "nM"}]}, {"binder": "B2", "values": [{"measurement": "Kd", "setting": "[3]", "result": 0.0386, "unit": "nM"}]}, {"binder": "B3", "values": [{"measurement": "IC50", "setting": "[4]", "result": 0.081, "unit": "nM"}]}, {"binder": "B4", "values": [{"measurement": "fold reduction of affinity for NGF relative to native trkA", "setting": "[5]", "result": "~2", "unit": "fold"}]}]}
